Experimental findings from patent publication US20140080757A1 (ZEALAND PHARMA A S, published 2014) are described below.

Assay in all cases: cell-based or functional assay
The target in assay [1] is T1, human glucagon receptor (Glucagon-R) (human, UniProt P47871 26-477).
Assay [2] concerns the target T2, human glucagon-like peptide 1 receptor (GLP-1R) (human, UniProt P43220 24-463).
For assay [3], the target named is T3, endogenous GLP-1 receptor of a murine insulinoma cell line (murine, UniProt O35659 22-463).
T3 sequence (looked up): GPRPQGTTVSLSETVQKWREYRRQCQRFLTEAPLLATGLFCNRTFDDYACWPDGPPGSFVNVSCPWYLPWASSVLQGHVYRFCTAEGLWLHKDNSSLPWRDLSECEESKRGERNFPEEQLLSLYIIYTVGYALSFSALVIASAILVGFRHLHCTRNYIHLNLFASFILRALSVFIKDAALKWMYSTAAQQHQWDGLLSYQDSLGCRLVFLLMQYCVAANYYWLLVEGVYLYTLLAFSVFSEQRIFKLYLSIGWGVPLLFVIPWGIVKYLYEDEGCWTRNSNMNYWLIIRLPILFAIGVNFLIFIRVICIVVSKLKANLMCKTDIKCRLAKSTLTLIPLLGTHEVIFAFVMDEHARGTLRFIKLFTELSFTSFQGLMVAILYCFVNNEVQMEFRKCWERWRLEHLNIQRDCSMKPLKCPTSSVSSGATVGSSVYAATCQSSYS

Assay [4] deals with endogenous glucagon receptor of primary rat hepatocytes (rat, UniProt P30082 27-485).
The target of assay [5] is T1, human glucagon receptor (Glucagon-R). The source holds these as a separate data set.
Assay [6] deals with T2, human glucagon-like peptide 1 receptor …. This is another data set of the same source.

Where two headings read alike, the source gives them in different places. Numbered stars: 1 amine (or outer) side, 2 acyl side, 3 side chain; on linkers, the order of the positions; unused ones are H or OH. Square brackets hold non-standard residues; d marks the D form. Side chains are listed from the residue outwards. * marks the point of attachment. γGlu = O=C(O)[C@H](CCC(=O)[*:2])N[*:1]; Palmitoyl = CCCCCCCCCCCCCCCC(=O)*; Aib = CC(C)(N)C(=O)O

T1 sequence (P47871 26-477): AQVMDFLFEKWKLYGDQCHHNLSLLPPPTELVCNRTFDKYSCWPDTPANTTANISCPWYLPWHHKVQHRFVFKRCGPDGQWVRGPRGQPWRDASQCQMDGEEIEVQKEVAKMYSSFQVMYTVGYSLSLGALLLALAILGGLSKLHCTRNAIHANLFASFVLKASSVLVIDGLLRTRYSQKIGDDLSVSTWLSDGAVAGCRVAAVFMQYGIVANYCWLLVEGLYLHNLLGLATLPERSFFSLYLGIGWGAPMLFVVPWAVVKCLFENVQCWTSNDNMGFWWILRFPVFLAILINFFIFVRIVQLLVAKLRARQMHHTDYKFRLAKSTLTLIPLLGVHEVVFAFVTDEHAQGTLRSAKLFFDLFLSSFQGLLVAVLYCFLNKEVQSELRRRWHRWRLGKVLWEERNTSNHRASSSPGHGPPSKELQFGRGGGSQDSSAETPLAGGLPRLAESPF
Sequence of endogenous glucagon receptor of primary rat hepatocytes (P30082 27-485): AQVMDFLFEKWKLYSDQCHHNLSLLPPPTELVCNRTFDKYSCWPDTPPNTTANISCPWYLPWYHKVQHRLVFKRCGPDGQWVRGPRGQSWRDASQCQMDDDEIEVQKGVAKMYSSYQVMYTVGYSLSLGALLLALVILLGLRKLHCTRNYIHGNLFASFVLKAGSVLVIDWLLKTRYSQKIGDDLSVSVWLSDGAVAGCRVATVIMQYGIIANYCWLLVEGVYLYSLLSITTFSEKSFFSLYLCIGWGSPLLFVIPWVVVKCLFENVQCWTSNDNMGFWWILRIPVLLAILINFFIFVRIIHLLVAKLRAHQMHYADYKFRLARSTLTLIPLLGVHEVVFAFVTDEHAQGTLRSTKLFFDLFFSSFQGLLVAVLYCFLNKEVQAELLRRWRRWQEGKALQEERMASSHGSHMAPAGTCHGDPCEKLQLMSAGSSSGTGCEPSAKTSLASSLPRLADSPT

In the case of HXQGTFTSDYSKYLDSXAAHDFVEWLLSA (Aib at position 2; Lys 17 K(Hexadecanoyl-isoGlu); C-terminal -OH) [Compound 13], the “EC50 hGCGR CHO-K1 [nM] (cAMP)” value in assay [1] was found to be 0.98 nM. In addition, in assay [2], the “EC50 hGLP-1R CHO-K1 [nM] (cAMP)” value was 0.51 nM and the “Ratio GLP-1/Glucagon (EC50 hGLP-1R / EC50 hGCGR)” value was 0.52 ratio. Further, in assay [3], the “EC50 GLP-1R (murine insulinoma cells) [nM] (cAMP)” value (from here on “EC50 GLP-1R … (cAMP)”) is 1.06 nM. In assay [4], the “EC50 GLP-1R Rat hepat. [nM] (inhibition of glycogen synthesis)” value came to 0.67 nM.
HXQGTFTSDYSKYLDEXAAKDFIEWLESA (Aib at position 2; Lys 17 K(Hexadecanoyl-isoGlu); C-terminal amide (-NH2)) [Compound 15]: in assay [1], the “EC50 hGCGR CHO-K1 [nM] (cAMP)” value amounted to 0.61 nM. For the same molecule, in assay [2], the “EC50 hGLP-1R CHO-K1 [nM] (cAMP)” value is 0.19 nM and the “Ratio GLP-1/Glucagon (EC50 hGLP-1R / EC50 hGCGR)” value stood at 0.31 ratio. In addition, in assay [3], the “EC50 GLP-1R … (cAMP)” value worked out at 0.3 nM. In assay [4], the “EC50 GLP-1R Rat hepat. [nM] (inhibition of glycogen synthesis)” value turned out to be 0.17 nM.

B1: Compound 18 (peptide)
peptide: H-HSHGTFTSDYSKYLEEK([γGlu-Palmitoyl])AAHEFIEWLESA-OH
SMILES: CCCCCCCCCCCCCCCC(=O)N[C@@H](CCC(=O)NCCCC[C@H](NC(=O)[C@H](CCC(=O)O)NC(=O)[C@H](CCC(=O)O)NC(=O)[C@H](CC(C)C)NC(=O)[C@H](Cc1ccc(O)cc1)NC(=O)[C@H](CCCCN)NC(=O)[C@H](CO)NC(=O)[C@H](Cc1ccc(O)cc1)NC(=O)[C@H](CC(=O)O)NC(=O)[C@H](CO)NC(=O)[C@@H](NC(=O)[C@H](Cc1ccccc1)NC(=O)[C@@H](NC(=O)CNC(=O)[C@H](Cc1c[nH]cn1)NC(=O)[C@H](CO)NC(=O)[C@@H](N)Cc1c[nH]cn1)[C@@H](C)O)[C@@H](C)O)C(=O)N[C@@H](C)C(=O)N[C@@H](C)C(=O)N[C@@H](Cc1c[nH]cn1)C(=O)N[C@@H](CCC(=O)O)C(=O)N[C@@H](Cc1ccccc1)C(=O)N[C@H](C(=O)N[C@@H](CCC(=O)O)C(=O)N[C@@H](Cc1c[nH]c2ccccc12)C(=O)N[C@@H](CC(C)C)C(=O)N[C@@H](CCC(=O)O)C(=O)N[C@@H](CO)C(=O)N[C@@H](C)C(=O)O)[C@@H](C)CC)C(=O)O
Regarding B1, the “EC50 hGCGR CHO-K1 [nM] (cAMP)” value in assay [5] was 0.14 nM. Besides, in assay [6], the “EC50 hGLP-1R CHO-K1 [nM] (cAMP)” value was 0.87 nM and the “Ratio GLP-1/Glucagon (EC50 hGLP-1R / EC50 hGCGR)” value was found to be 6.2 ratio. For the same molecule, in assay [3], the “EC50 GLP-1R … (cAMP)” value turned out to be 0.99 nM. In assay [4], the “EC50 GLP-1R Rat hepat. [nM] (inhibition of glycogen synthesis)” value was 0.18 nM.

B2: Compound 17 (peptide)
peptide: H-H[Aib]HGTFTSDYSKYLESK([γGlu-Palmitoyl])AAEEFIEWLESA-OH
SMILES: CCCCCCCCCCCCCCCC(=O)N[C@@H](CCC(=O)NCCCC[C@H](NC(=O)[C@H](CO)NC(=O)[C@H](CCC(=O)O)NC(=O)[C@H](CC(C)C)NC(=O)[C@H](Cc1ccc(O)cc1)NC(=O)[C@H](CCCCN)NC(=O)[C@H](CO)NC(=O)[C@H](Cc1ccc(O)cc1)NC(=O)[C@H](CC(=O)O)NC(=O)[C@H](CO)NC(=O)[C@@H](NC(=O)[C@H](Cc1ccccc1)NC(=O)[C@@H](NC(=O)CNC(=O)[C@H](Cc1c[nH]cn1)NC(=O)C(C)(C)NC(=O)[C@@H](N)Cc1c[nH]cn1)[C@@H](C)O)[C@@H](C)O)C(=O)N[C@@H](C)C(=O)N[C@@H](C)C(=O)N[C@@H](CCC(=O)O)C(=O)N[C@@H](CCC(=O)O)C(=O)N[C@@H](Cc1ccccc1)C(=O)N[C@H](C(=O)N[C@@H](CCC(=O)O)C(=O)N[C@@H](Cc1c[nH]c2ccccc12)C(=O)N[C@@H](CC(C)C)C(=O)N[C@@H](CCC(=O)O)C(=O)N[C@@H](CO)C(=O)N[C@@H](C)C(=O)O)[C@@H](C)CC)C(=O)O
On to B2, for which the “EC50 hGCGR CHO-K1 [nM] (cAMP)” value in assay [5] was 0.05 nM. Also, in assay [6], the “EC50 hGLP-1R CHO-K1 [nM] (cAMP)” value came to 0.23 nM and the “Ratio GLP-1/Glucagon (EC50 hGLP-1R / EC50 hGCGR)” value worked out at 4.6 ratio. Further, the “EC50 GLP-1R … (cAMP)” value in assay [3] was 0.89 nM. Also, in assay [4], the “EC50 GLP-1R Rat hepat. [nM] (inhibition of glycogen synthesis)” value amounted to 0.18 nM.

B3: Compound 14 (peptide)
peptide: H-H[Aib]QGTFTSDYSKYLDEK([γGlu-Palmitoyl])RAKDFIEWLLSA-OH
SMILES: CCCCCCCCCCCCCCCC(=O)N[C@@H](CCC(=O)NCCCC[C@H](NC(=O)[C@H](CCC(=O)O)NC(=O)[C@H](CC(=O)O)NC(=O)[C@H](CC(C)C)NC(=O)[C@H](Cc1ccc(O)cc1)NC(=O)[C@H](CCCCN)NC(=O)[C@H](CO)NC(=O)[C@H](Cc1ccc(O)cc1)NC(=O)[C@H](CC(=O)O)NC(=O)[C@H](CO)NC(=O)[C@@H](NC(=O)[C@H](Cc1ccccc1)NC(=O)[C@@H](NC(=O)CNC(=O)[C@H](CCC(N)=O)NC(=O)C(C)(C)NC(=O)[C@@H](N)Cc1c[nH]cn1)[C@@H](C)O)[C@@H](C)O)C(=O)N[C@@H](CCCNC(=N)N)C(=O)N[C@@H](C)C(=O)N[C@@H](CCCCN)C(=O)N[C@@H](CC(=O)O)C(=O)N[C@@H](Cc1ccccc1)C(=O)N[C@H](C(=O)N[C@@H](CCC(=O)O)C(=O)N[C@@H](Cc1c[nH]c2ccccc12)C(=O)N[C@@H](CC(C)C)C(=O)N[C@@H](CC(C)C)C(=O)N[C@@H](CO)C(=O)N[C@@H](C)C(=O)O)[C@@H](C)CC)C(=O)O
For B3, the “EC50 hGCGR CHO-K1 [nM] (cAMP)” value in assay [1] was found to be 0.54 nM. Further, in assay [2], the “EC50 hGLP-1R CHO-K1 [nM] (cAMP)” value amounted to 0.53 nM and the “Ratio GLP-1/Glucagon (EC50 hGLP-1R / EC50 hGCGR)” value was found to be 0.98 ratio. In addition, in assay [3], the “EC50 GLP-1R … (cAMP)” value worked out at 0.72 nM. The “EC50 GLP-1R Rat hepat. [nM] (inhibition of glycogen synthesis)” value in assay [4] turned out to be 0.1 nM.
Turning to HXQGTFTSDYSKYLDEXAAKDFIEWLESA (D-Ser at position 2; Lys 17 K(Hexadecanoyl-isoGlu); C-terminal amide (-NH2)) [Compound 25], in assay [5], the “EC50 hGCGR CHO-K1 [nM] (cAMP)” value was found to be 0.16 nM. For the same molecule, in assay [6], the “EC50 hGLP-1R CHO-K1 [nM] (cAMP)” value worked out at 0.31 nM and the “Ratio GLP-1/Glucagon (EC50 hGLP-1R / EC50 hGCGR)” value stood at 1.94 ratio. Also, in assay [3], the “EC50 GLP-1R … (cAMP)” value was 0.41 nM. Also, the “EC50 GLP-1R Rat hepat. [nM] (inhibition of glycogen synthesis)” value in assay [4] amounted to 0.15 nM.

B4: Compound 16 (peptide)
peptide: H-H[Aib]QGTFTSDYSKYLDSK([γGlu-Palmitoyl])AAEDFVEWLESA-NH2
SMILES: CCCCCCCCCCCCCCCC(=O)N[C@@H](CCC(=O)NCCCC[C@H](NC(=O)[C@H](CO)NC(=O)[C@H](CC(=O)O)NC(=O)[C@H](CC(C)C)NC(=O)[C@H](Cc1ccc(O)cc1)NC(=O)[C@H](CCCCN)NC(=O)[C@H](CO)NC(=O)[C@H](Cc1ccc(O)cc1)NC(=O)[C@H](CC(=O)O)NC(=O)[C@H](CO)NC(=O)[C@@H](NC(=O)[C@H](Cc1ccccc1)NC(=O)[C@@H](NC(=O)CNC(=O)[C@H](CCC(N)=O)NC(=O)C(C)(C)NC(=O)[C@@H](N)Cc1c[nH]cn1)[C@@H](C)O)[C@@H](C)O)C(=O)N[C@@H](C)C(=O)N[C@@H](C)C(=O)N[C@@H](CCC(=O)O)C(=O)N[C@@H](CC(=O)O)C(=O)N[C@@H](Cc1ccccc1)C(=O)N[C@H](C(=O)N[C@@H](CCC(=O)O)C(=O)N[C@@H](Cc1c[nH]c2ccccc12)C(=O)N[C@@H](CC(C)C)C(=O)N[C@@H](CCC(=O)O)C(=O)N[C@@H](CO)C(=O)N[C@@H](C)C(N)=O)C(C)C)C(=O)O
Take B4: the “EC50 hGCGR CHO-K1 [nM] (cAMP)” value in assay [1] turned out to be 1.58 nM. In assay [2], the “EC50 hGLP-1R CHO-K1 [nM] (cAMP)” value turned out to be 0.2 nM and the “Ratio GLP-1/Glucagon (EC50 hGLP-1R / EC50 hGCGR)” value came to 0.13 ratio. Also, the “EC50 GLP-1R … (cAMP)” value in assay [3] is 0.33 nM. Further, the “EC50 GLP-1R Rat hepat. [nM] (inhibition of glycogen synthesis)” value in assay [4] was determined as 1.85 nM.

B5: Compound 12 (peptide)
peptide: H-HSQGTFTSDYSRYLDSK([γGlu-Palmitoyl])AAHDFVEWLLSA-NH2
SMILES: CCCCCCCCCCCCCCCC(=O)N[C@@H](CCC(=O)NCCCC[C@H](NC(=O)[C@H](CO)NC(=O)[C@H](CC(=O)O)NC(=O)[C@H](CC(C)C)NC(=O)[C@H](Cc1ccc(O)cc1)NC(=O)[C@H](CCCNC(=N)N)NC(=O)[C@H](CO)NC(=O)[C@H](Cc1ccc(O)cc1)NC(=O)[C@H](CC(=O)O)NC(=O)[C@H](CO)NC(=O)[C@@H](NC(=O)[C@H](Cc1ccccc1)NC(=O)[C@@H](NC(=O)CNC(=O)[C@H](CCC(N)=O)NC(=O)[C@H](CO)NC(=O)[C@@H](N)Cc1c[nH]cn1)[C@@H](C)O)[C@@H](C)O)C(=O)N[C@@H](C)C(=O)N[C@@H](C)C(=O)N[C@@H](Cc1c[nH]cn1)C(=O)N[C@@H](CC(=O)O)C(=O)N[C@@H](Cc1ccccc1)C(=O)N[C@H](C(=O)N[C@@H](CCC(=O)O)C(=O)N[C@@H](Cc1c[nH]c2ccccc12)C(=O)N[C@@H](CC(C)C)C(=O)N[C@@H](CC(C)C)C(=O)N[C@@H](CO)C(=O)N[C@@H](C)C(N)=O)C(C)C)C(=O)O
As for B5, in assay [1], the “EC50 hGCGR CHO-K1 [nM] (cAMP)” value turned out to be 0.43 nM. In assay [2], the “EC50 hGLP-1R CHO-K1 [nM] (cAMP)” value was 0.37 nM and the “Ratio GLP-1/Glucagon (EC50 hGLP-1R / EC50 hGCGR)” value is 0.86 ratio. Besides, the “EC50 GLP-1R … (cAMP)” value in assay [3] was found to be 1.62 nM. In addition, in assay [4], the “EC50 GLP-1R Rat hepat. [nM] (inhibition of glycogen synthesis)” value was determined as 0.24 nM.
